Measurements published in IntAct's records for PubMed 22064073.

B1: PAX-interacting protein 1 (Homo sapiens), Q6ZW49-1 (parent)
chain: MVFLQNHVRFFLESLPAFLRVLIQAGALCWSLPELSQGEVGKGACPAEVGKHRDHLPSSDPVLMQAEASVVMCWVSSEDRSALWALVTFYGGDCQLTLNKKCTHLIVPEPKGEKYECALKRASIKIVTPDWVLDCVSEKTKKDEAFYHPRLIIYEEEEEEEEEEEEVENEEQDSQNEGSTDEKSSPASSQEGSPSGDQQFSPKSNTEKSKGELMFDDSSDSSPEKQERNLNWTPAEVPQLAAAKRRLPQGKEPGLINLCANVPPVPGNILPPEVRGNLMAAGQNLQSSERSEMIATWSPAVRTLRNITNNADIQQMNRPSNVAHILQTLSAPTKNLEQQVNHSQQGHTNANAVLFSQVKVTPETHMLQQQQQAQQQQQQHPVLHLQPQQIMQLQQQQQQQISQQPYPQQPPHPFSQQQQQQQQAHPHQFSQQQLQFPQQQLHPPQQLHRPQQQLQPFQQQHALQQQFHQLQQHQLQQQQLAQLQQQHSLLQQQQQQQIQQQQLQRMHQQQQQQQMQSQTAPHLSQTSQALQHQVPPQQPPQQQQQQQPPPSPQQHQLFGHDPAVEIPEEGFLLGCVFAIADYPEQMSDKQLLATWKRIIQAHGGTVDPTFTSRCTHLLCESQVSSAYAQAIRERKRCVTAHWLNTVLKKKKMVPPHRALHFPVAFPPGGKPCSQHIISVTGFVDSDRDDLKLMAYLAGAKYTGYLCRSNTVLICKEPTGLKYEKAKEWRIPCVNAQWLGDILLGNFEALRQIQYSRYTAFSLQDPFAPTQHLVLNLLDAWRVPLKVSAELLMSIRLPPKLKQNEVANVQPSSKRARIEDVPPPTKKLTPELTPFVLFTGFEPVQVQQYIKKLYILGGEVAESAQKCTHLIASKVTRTVKFLTAISVVKHIVTPEWLEECFRCQKFIDEQNYILRDAEAEVLFSFSLEESLKRAHVSPLFKAKYFYITPGICPSLSTMKAIVECAGGKVLSKQPSFRKLMEHKQNSSLSEIILISCENDLHLCREYFARGIDVHNAEFVLTGVLTQTLDYESYKFN

Variants of: B1
Conditions: with h2ax_human H2AX

Row | Variant | effect of a mutation on the interaction
1 | K879M | disrupting interaction

Variants of: B1
Conditions: with h2ax_human H2AX
Remark: another data set of the same source

Row | Variant | effect of a mutation on the interaction
2 | E1016A | decreasing interaction

Variants of: B1
Conditions: with h2ax_human H2AX
Remark: another data set of the same source

Row | Variant | effect of a mutation on the interaction
3 | T1020A | increasing interaction

Variants of: B1
Conditions: with h2ax_human H2AX
Remark: another data set of the same source

Row | Variant | effect of a mutation on the interaction
4 | T838A | disrupting interaction

Variants of: B1
Conditions: with h2ax_human H2AX
Remark: another data set of the same source

Row | Variant | effect of a mutation on the interaction
5 | R876D | disrupting interaction
